Laboratory results: patent US20260008817A1, “CYCLIC PEPTIDE OR SALT THEREOF, AND USES THEREOF” (FUJIFILM Corporation, priority 2023, published 2026)

Tests used:
[1] = target: T1, FGFR1 Protein, Human, Recombinant (His Tag) (Homo sapiens, UniProt P11362); test: SPR FGFR versatility, FGFR1 on immobilized cyclic peptide; assay type: binding; conditions: 1 μmol/L FGFR, 25° C.
T1 construct: His tag; purchased Sino Biological 10616-H08H
T1 sequence (P11362 22-285 isoform P11362-14 limits assumed): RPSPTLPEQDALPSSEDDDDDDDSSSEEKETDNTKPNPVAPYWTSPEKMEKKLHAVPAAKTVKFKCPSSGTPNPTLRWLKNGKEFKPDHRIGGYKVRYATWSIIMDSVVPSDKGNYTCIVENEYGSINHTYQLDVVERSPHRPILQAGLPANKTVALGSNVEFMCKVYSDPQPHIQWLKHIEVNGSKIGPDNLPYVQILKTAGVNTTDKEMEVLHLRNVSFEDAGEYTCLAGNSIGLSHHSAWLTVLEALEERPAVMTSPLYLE
Experimental: (§1) The binding of the cyclic peptide to various types of FGFRs was evaluated using a surface plasmon resonance (SPR) method.
(§2) The binding affinity of the chemically synthesized cyclic peptide to FGFR was evaluated by the following procedure.
(§3) A CM5 sensor chip (Cytiva, 29149603) was set in Biacore-T200 (manufactured by Cytiva) which is a surface plasmon resonance device, and an HBS-EP buffer (Cytiva, BR100826) was added as a running buffer at a flow rate of 10 μL/min to equilibrate the flow channel. Next, 70 μL of a mixed aqueous solution of 0.2 mol/L 1-(3-dimethylaminopropyl)-3-ethylcarbodiimide (EDC) and 0.05 mol/L N-hydroxysuccinimide (NHS) was added to activate the sensor chip. Then, a cyclic peptide prepared to 2 mg/mL in HBS-EP buffer was added thereto to perform immobilization at about 200 RU. […]
(§4) After various FGFRs (FGFR1 Protein, Human, Recombinant (His Tag) (Sino Biological, 10616-H08H), FGFR3 Protein, Human, Recombinant (ECD, His Tag) (Sino Biological, 16044-H08H), FGFR4 Protein, Human, Recombinant (His Tag) (Sino Biological, 10538-H08H)) diluted with HBS-EP to 1 μmol/L at 25° C. was added to each flow channel of the cyclic peptide-immobilized sensor chip prepared above, for 10 minutes, HBS-EP was allowed to flow as a running buffer for 30 minutes, and the binding of various FGFRs to the cyclic peptide was measured. […]

[2] = target: T2, FGFR4 Protein, Human, Recombinant (His Tag) (Homo sapiens, UniProt P22455); test: SPR FGFR versatility, FGFR4 on immobilized cyclic peptide; assay type: binding; conditions: 1 μmol/L FGFR, 25° C.
T2 construct: His tag; purchased Sino Biological 10538-H08H
T2 sequence (P22455 22-369 limits assumed): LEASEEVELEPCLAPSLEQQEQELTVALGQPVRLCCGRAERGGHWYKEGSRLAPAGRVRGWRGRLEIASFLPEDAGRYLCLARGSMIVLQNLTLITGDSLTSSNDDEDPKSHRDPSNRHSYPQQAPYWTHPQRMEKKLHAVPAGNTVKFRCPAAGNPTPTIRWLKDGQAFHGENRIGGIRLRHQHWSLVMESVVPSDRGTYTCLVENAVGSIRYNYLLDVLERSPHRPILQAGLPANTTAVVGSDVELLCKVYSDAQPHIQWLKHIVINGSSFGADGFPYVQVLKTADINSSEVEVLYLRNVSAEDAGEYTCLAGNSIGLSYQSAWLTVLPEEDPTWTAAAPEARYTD
Experimental: as §1, §2, §3, §4

[3] = Reductive stability of cyclic peptide (DTT treatment, LC); assay type: physicochemical; conditions: residual rate after DTT treatment, room temperature, 1 hour
Experimental: The molecular stability of the cyclic peptide was evaluated by analyzing an aqueous solution of the cyclic peptide treated with a reducing agent by liquid chromatography (LC).
The reducing agent treatment was performed under the following conditions based on the concentration of glutathione contained in the cells. 25 μL of a 0.2 mg/mL cyclic peptide aqueous solution was prepared, 58.8 μL of a 12.6 mmol/L DTT aqueous solution was added to the aqueous solution, and the mixture was incubated at room temperature for 1 hour to obtain an aqueous solution of the cyclic peptide treated with a reducing agent. The DTT aqueous solution was used by diluting a 1 mol/L (+−)-dithiothreitol (DTT) solution (FUJIFILM Wako Pure Chemical Corporation, 044-33871) with water. The total area of all the peaks in LC/MS of the cyclic peptide before the reducing agent treatment was set to 100%, and the proportion of the total area of all the peaks in LC/MS of the aqueous solution of the cyclic peptide treated with the reducing agent was determined to calculate the residual rate of the cyclic peptide, and the molecular stability was evaluated according to the following evaluation criteria. The evaluation result preferably satisfies the evaluation criteria A, B, or C.
• A: The residual rate of cyclic peptide is 90% or more. • B: The residual rate of the cyclic peptide is 70% or more and less than 90% • C: The residual rate of the cyclic peptide is 50% or more and less than 70% • D: The residual rate of the cyclic peptide is less than 50%
The LC used for the evaluation of molecular stability was set to the following conditions. • LC device: Prominence series (pump, column oven, autosampler, detector) (manufactured by Shimadzu Corporation) • Detector: photodiode array detector (SPD-M20A), measurement wavelength of 280 nm • Column: TSKgel ODS-100V, inner diameter of 4.6 mm×length of 150 mm, particle diameter of 5 μm (manufactured by Tosoh Corporation) • Eluent A: solution containing 0.1% trifluoroacetic acid as solute, and solvent is 100% water • Eluent B: solution containing 0.1% trifluoroacetic acid as solute, and solvent is 100% acetonitrile • Flow rate: 1.0 mL/min • Injection amount: 25 μL • Gradient: 20% to 50%: Eluent B (0 to 15 minutes), 100%: Eluent B (15 minutes) • Column temperature: 40° C.

For “335 (ACVWTFDRHAQEISQALHKVKKK; not fully specified; Description of Artificial Sequence: Cyclic peptide) [compound 335]”, which “Evaluation result of binding affinity to FGFR1” value [1] is on record?
The value was “A (The binding amount is 0.05 molecules of FGFR/one molecule of the cyclic peptide or more.)”.

What about the “Evaluation result of binding affinity to FGFR4” value [2] of the same substance?
Its value is “A (The binding amount is 0.05 molecules of FGFR/one molecule of the cyclic peptide or more.)”.

And the “Evaluation result of reductive stability” value [3]?
Its value is “B (The residual rate of the cyclic peptide is 70% or more and less than 90%)”.
